Experimental data as given in patent publication US20230257454A1 (STAIDSON BEIJING BIOPHARMACEUTICALS, published 2023).

How the values were obtained:
C5a-T1A = biological target: T1, C5a-T1A; experiment: ELISA on the coated C5a protein, antibody titrated, OD410
T1 single chain: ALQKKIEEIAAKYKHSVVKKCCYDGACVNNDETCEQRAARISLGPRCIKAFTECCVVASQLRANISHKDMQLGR

C5a-E8A = biological target: T2, C5a-E8A; experiment: as above
T2 single chain: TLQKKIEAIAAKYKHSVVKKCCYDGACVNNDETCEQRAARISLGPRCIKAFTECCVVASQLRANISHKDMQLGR

C5a-K12A = biological target: T3, C5a-K12A; experiment: as above
T3 single chain: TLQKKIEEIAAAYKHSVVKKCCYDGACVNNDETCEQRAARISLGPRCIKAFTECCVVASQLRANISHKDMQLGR

C5a-E7A = biological target: T4, C5a-E7A; experiment: as above
T4 single chain: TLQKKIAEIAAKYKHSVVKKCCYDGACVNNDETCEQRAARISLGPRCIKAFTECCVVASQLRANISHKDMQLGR

[1] = biological target: T5, human C5a (source not stated) (human, UniProt P01031 678-751); experiment: cell-based or functional assay
T5 sequence: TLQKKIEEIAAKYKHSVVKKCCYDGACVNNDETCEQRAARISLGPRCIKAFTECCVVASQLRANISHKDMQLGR

[2] = biological target: T5, human C5a (source not stated); experiment: ELISA on the coated protein, biotinylated Cab42 titrated, SA-HRP, OD410
[3] = biological target: T6, native full-length human complement component C5 (human, UniProt P01031 19-673; P01031 678-1676); experiment: ELISA, plate coated with human native C5, full-length antibody titrated, OD410
T6 construct: mature; The native protein has two disulfide-linked chains (alpha and beta) made from one precursor; also called human native C5

human endogenous C5a = biological target: T7, human endogenous C5a (human, UniProt P01031 678-751, limits assumed); experiment: cell-based or functional assay
T7 sequence: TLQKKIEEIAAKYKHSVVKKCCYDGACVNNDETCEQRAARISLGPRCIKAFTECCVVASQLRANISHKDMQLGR

C5a-V28F = biological target: T8, C5a-V28F; experiment: ELISA on the coated C5a protein, antibody titrated, OD410
T8 single chain: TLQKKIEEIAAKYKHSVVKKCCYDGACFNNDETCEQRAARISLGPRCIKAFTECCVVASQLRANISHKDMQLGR

C5a-Y13A = biological target: T9, C5a-Y13A; experiment: as above
T9 single chain: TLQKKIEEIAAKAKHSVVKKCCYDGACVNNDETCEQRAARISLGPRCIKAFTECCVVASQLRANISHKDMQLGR

C5a-V28A = biological target: T10, C5a-V28A; experiment: as above
T10 single chain: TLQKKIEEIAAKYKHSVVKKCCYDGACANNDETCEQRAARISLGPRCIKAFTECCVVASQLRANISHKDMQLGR

C5a-N29A = biological target: T11, C5a-N29A; experiment: as above
T11 single chain: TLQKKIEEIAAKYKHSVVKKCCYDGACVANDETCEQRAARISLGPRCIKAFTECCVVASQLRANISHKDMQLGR

C5a-Y23A = biological target: T12, C5a-Y23A; experiment: as above
T12 single chain: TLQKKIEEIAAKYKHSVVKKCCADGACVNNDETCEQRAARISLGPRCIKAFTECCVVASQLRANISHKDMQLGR

C5a-V28R = biological target: T13, C5a-V28R; experiment: as above
T13 single chain: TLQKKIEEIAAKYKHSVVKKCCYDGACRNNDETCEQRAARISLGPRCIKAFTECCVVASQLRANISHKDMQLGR

C5a-C27A = biological target: T14, C5a-C27A; experiment: as above
T14 single chain: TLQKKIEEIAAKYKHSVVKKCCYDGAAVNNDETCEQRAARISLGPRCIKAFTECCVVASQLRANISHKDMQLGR

C5a-K20A = biological target: T15, C5a-K20A; experiment: as above
T15 single chain: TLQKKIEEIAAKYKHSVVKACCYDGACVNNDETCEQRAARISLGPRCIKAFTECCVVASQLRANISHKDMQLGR

C5a-N30A = biological target: T16, C5a-N30A; experiment: as above
T16 single chain: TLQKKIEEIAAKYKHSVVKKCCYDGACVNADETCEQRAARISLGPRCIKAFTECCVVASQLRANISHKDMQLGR

C5a-T33A = biological target: T17, C5a-T33A; experiment: as above
T17 single chain: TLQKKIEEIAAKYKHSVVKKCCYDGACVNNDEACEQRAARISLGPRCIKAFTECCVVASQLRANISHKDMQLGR

C5a-Q36A = biological target: T18, C5a-Q36A; experiment: as above
T18 single chain: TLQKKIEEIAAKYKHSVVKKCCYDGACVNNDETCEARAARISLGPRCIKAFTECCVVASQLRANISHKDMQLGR

C5a-R62A = biological target: T19, C5a-R62A; experiment: as above
T19 single chain: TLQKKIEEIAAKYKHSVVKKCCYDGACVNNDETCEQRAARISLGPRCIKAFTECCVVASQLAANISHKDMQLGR

C5a-E35A = biological target: T20, C5a-E35A; experiment: as above
T20 single chain: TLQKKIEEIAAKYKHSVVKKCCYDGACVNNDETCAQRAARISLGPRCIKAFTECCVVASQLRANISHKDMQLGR

T6 sequence (P01031 19-673 limits assumed, one chain of several): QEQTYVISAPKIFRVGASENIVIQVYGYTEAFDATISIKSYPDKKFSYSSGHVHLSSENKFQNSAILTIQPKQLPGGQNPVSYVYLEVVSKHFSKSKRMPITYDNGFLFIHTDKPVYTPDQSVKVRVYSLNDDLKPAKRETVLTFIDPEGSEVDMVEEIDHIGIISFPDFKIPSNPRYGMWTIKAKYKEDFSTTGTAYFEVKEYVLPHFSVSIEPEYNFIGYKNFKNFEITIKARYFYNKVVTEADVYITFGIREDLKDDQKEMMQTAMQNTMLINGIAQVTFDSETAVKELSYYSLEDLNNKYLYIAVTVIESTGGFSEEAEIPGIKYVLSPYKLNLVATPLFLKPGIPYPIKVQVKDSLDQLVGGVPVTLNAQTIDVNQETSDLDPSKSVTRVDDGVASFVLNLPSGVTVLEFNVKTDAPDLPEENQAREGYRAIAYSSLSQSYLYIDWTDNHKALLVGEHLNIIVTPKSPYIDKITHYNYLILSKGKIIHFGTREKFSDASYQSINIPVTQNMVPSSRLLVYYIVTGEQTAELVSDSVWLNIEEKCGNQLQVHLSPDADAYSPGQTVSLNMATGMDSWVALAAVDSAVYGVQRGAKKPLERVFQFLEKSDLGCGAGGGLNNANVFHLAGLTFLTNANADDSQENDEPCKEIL

B1: Cab42-IgG1 (antibody, V domains shown)
VH: EMQLVESGGGLVQPGGSLRLSCAASGFTFSDYYMQWVRQAPGKGPEWVGLIRNKAVGETTQYAASVKGRFTISRDDSKNSVYLQMNSLKTEDTAVYYCVSRAGPPGLSWGQGVLVTVSS
VL: DIVMTQSPLSLPVTPGEPASISCRSSQSLLASDAYNYIDWYLQKPGQSPQLLIYGGSNRASGVPDRFSGSGSGTDFTLKISRVEAEDVGVYFCLQHRALPPTFGQGTKLEIK
notes: Full-length human IgG1; It was biotinylated in the peptide-Fc ELISA
Question: Does B1 bind (C5a-T1A)?
Answer: Result: binds

Question: Does B1 bind (C5a-E8A)?
Answer: Result: binds

Question: Does B1 bind (C5a-K12A)?
Answer: Result: binds

Question: Does B1 bind (C5a-E7A)?
Answer: Result: binds

Question: What about the “ROS IC50” value [1] of the same binder?
Answer: Its value is 0.78 nM.

Question: What about the “EC50 (read off the curve)” value [2] of the same binder?
Answer: The value was ~30 ng/w.

Question: What about the “EC50 (read off the curve)” value [3] of the same binder?
Answer: The value was ~10 ng/mL.

Question: And the “eC5a IC50(nM), CD11b up-regulation on human neutrophils in whole blood” value (human endogenous C5a)?
Answer: The value was 2.05 nM.

Question: And the “eC5a+50*C5 IC50(nM), CD11b up-regulation on human neutrophils in whole blood with 50 times more C5” value (human endogenous C5a)?
Answer: Its value is 31 nM.

Question: Does B1 bind (C5a-V28F)?
Answer: Result: binds

Question: Does B1 bind (C5a-Y13A)?
Answer: Result: binds

Question: Does B1 bind (C5a-V28A)?
Answer: Result: binds

Question: Does B1 bind (C5a-N29A)?
Answer: Result: binds

Question: Does B1 bind (C5a-Y23A)?
Answer: Result: binds

Question: Does B1 bind (C5a-V28R)?
Answer: Result: binds

Question: Does B1 bind (C5a-C27A)?
Answer: Result: binds

Question: Does B1 bind (C5a-K20A)?
Answer: Result: binds

Question: Does B1 bind (C5a-N30A)?
Answer: Result: binds

Question: Does B1 bind (C5a-T33A)?
Answer: Result: binds

Question: Does B1 bind (C5a-Q36A)?
Answer: Result: binds

Question: Does B1 bind (C5a-R62A)?
Answer: Result: binds

Question: Does B1 bind (C5a-E35A)?
Answer: Result: binds
